B1: ProMAN3 P1 probe (dsDNA)
DNA 1: GGTTTACAAATCAACAACCACTGAACTTTT
DNA 2: AAAAGTTCAGTGGTTGTTGATTTGTAAACC
B2: ProMAN3 P2 probe (dsDNA)
DNA 1: AAGATGGGTTTGCTTGGTGAGACCACAAGA
DNA 2: TCTTGTGGTCTCACCAAGCAAACCCATCTT
B3: ProMAN3 P3 probe (dsDNA)
DNA 1: CAAATCATATAGTTTGGTGACTGATTTCAA
DNA 2: TTGAAATCAGTCACCAAACTATATGATTTG
B4: ProMAN3 P4 probe (dsDNA)
DNA 1: AGTTAGTCAATGAACGGTTTTCAAATAAAG
DNA 2: CTTTATTTGAAAACCGTTCATTGACTAACT

What follows are binders tested against MYB4-MBP (Arabidopsis thaliana, UniProt Q9SZP1 1-282) (assay: EMSA; LightShift Chemiluminescent EMSA Kit (Thermo), manufacturer's protocol; buffer, salt, pH and temperature not stated). Conditions: protein: recombinant; tags: MBP; label: 3' biotin on sense strand; blunt.
Sequence of MYB4-MBP (Q9SZP1 whole entry): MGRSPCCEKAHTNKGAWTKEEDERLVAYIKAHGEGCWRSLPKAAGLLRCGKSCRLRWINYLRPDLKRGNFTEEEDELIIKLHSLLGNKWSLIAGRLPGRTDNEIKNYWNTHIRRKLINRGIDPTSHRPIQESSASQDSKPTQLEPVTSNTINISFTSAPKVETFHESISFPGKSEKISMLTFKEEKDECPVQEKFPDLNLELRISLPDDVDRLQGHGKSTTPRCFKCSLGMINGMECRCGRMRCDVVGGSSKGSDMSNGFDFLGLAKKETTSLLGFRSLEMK
B1: binds. B2: binds. B3: binds. B4: binds.
